The target of series [1] is human Prx2-based FRET probe (Clover-Prx2-mRuby2) (human). The series is described as follows: non-reducing SDS-PAGE with immunoblot; HeLa cells with or without the probe, treated with H2O2 (also auranofin or piperlongumine); free thiols blocked with 100 mM MMTS; 1% Triton X-100 lysate; SDS-PAGE without beta-mercaptoethanol; blot for Prx2 or GFP; disulfide-linked dimers.
Series [2] deals with the molecule itself. The description is as above.

The term stoichiometry N denotes the number of molecules, sites or subunits per partner or assembly.

In series [1], “human Prx2-based FRET probe (Clover-Prx2-mRuby2)” showed a stoichiometry N of 2.

B1: human peroxiredoxin-2 (endogenous) (natural protein, human (endogenous in HeLa), UniProt P32119 1-198, looked up)
chain: MASGNARIGKPAPDFKATAVVDGAFKEVKLSDYKGKYVVLFFYPLDFTFVCPTEIIAFSNRAEDFRKLGCEVLGVSVDSQFTHLAWINTPRKEGGLGPLNIPLLADVTRRLSEDYGVLKTDEGIAYRGLFIIDGKGVLRQITVNDLPVGRSVDEALRLVQAFQYTDEHGEVCPAGWKPGSDTIKPNVDDSKEYFSKHN
notes: peroxiredoxin-2 (Prx2), human, endogenous in HeLa cells; monomer band at 21 kDa; the dimer seen on non-reducing SDS-PAGE is linked by a disulfide between the catalytic and the resolving cysteine of two monomers; also called Prx2; endogenous Prx2; source: endogenous, HeLa lysate
For B1, the “stoichiometry N” value in series [2] stood at 2.

(Values after paper PMC6081480, “Monitoring the action of redox-directed cancer therapeutics using a human peroxiredoxin-2-based probe” (Nature Communications, 2018).)
